Reference: US20040161798A1 (University of Texas, published 2004)
No end group written: not given here.

Columns and labels:
[1] = molecular target: T1, ubiquitin (Homo sapiens (Human), UniProt P0CG47 1-76, The screen used fluorescently labelled ubiquitin. The ITC and pull-down assays used unlabelled (native) ubiquitin.); assay: isothermal titration calorimetry in solution
T1 construct: Unlabeled in ITC and in the pull-down assays; also called native ubiquitin

[2] = molecular target: T1, ubiquitin; assay: isothermal titration calorimetry in solution, against NH2-RWDRYYF
[3] = molecular target: T2, GST-KIX (mouse, UniProt P45481 378-817); assay: fluorescence polarization titration in solution; paragraph 167 gives this value for His6-KIX and GST-KIX
T2 construct: range 378-817; also called GSTCBP(378-817); GST fusion of CBP(378-817)
T2 sequence (P45481 378-817): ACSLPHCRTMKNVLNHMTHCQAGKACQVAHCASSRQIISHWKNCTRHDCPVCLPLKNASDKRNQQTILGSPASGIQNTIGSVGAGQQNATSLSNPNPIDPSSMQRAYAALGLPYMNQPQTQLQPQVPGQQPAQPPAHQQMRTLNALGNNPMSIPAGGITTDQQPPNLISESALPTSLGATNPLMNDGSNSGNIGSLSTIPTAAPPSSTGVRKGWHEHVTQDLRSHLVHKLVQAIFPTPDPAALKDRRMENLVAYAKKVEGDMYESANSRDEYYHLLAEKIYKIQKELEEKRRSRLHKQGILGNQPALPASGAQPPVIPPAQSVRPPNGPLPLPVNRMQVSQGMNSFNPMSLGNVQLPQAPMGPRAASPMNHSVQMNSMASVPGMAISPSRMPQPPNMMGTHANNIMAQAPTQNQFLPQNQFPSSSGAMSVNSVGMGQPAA
Text: (§1) Determination of solution binding constants.
(§2) Complex half life of immobilized peptides and dimeric proteins. Peptide libraries are rich sources of protein-binding molecules and there exist many straightforward methods to screen such libraries. […] To test the surface-mediated avidity concept, a collection of peptides known to bind different proteins were assembled, some homodimers and some monomers.

[4] = molecular target: T3, His6-KIX (mouse, UniProt P45481 378-817); assay: as above
T3 construct: range 378-817; Monomer; also called CBP(378-817) from pRSET-CBP(378-817); not shown: N-terminal His6 tag of vector pRSET-A
T3 sequence (P45481 378-817): as above
Text: as §1, §2

[5] = molecular target: T2, GST-KIX; assay: fluorescence polarization after adding excess unlabeled peptide
Text: (§3) Fluorescence anisotropy measurements were taken every 30 seconds.
as §2

[6] = molecular target: T3, His6-KIX; assay: as above
Text: as §3, §2

[7] = molecular target: T2, GST-KIX; assay: dilution assay on TentaGel beads, Western blot
[8] = molecular target: maltose-binding protein (UniProt P0AEX9 27-392 = MBP); assay: fluorescence polarization titration in solution
[9] = molecular target: T4, His6Gal80 (UniProt P04387 1-435); assay: protein retained on TentaGel beads with scrambled peptide, SDS-PAGE/Western blot
T4 construct: also called Gal80 protein; Gal 80 protein; not shown: N-terminal His6 tag from vector pProEX-1
T4 sequence (looked up): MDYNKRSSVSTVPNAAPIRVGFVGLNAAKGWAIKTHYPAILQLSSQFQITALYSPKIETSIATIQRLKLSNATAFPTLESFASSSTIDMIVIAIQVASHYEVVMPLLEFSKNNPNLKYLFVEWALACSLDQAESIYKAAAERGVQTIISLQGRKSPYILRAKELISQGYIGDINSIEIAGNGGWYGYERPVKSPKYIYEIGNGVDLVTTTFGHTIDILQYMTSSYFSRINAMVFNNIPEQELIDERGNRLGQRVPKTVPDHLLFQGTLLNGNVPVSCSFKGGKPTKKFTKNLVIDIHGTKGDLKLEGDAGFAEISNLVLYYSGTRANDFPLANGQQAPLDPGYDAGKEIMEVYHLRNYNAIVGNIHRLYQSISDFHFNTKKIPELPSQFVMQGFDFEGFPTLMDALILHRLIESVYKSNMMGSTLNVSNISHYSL

[10] = molecular target: T2, GST-KIX; assay: as above
[11] = molecular target: T5, GST-Mdm2 (human, UniProt Q00987 1-188); assay: as above
T5 construct: range 1-188; also called GST fused human Mdm2
T5 sequence (Q00987 1-188): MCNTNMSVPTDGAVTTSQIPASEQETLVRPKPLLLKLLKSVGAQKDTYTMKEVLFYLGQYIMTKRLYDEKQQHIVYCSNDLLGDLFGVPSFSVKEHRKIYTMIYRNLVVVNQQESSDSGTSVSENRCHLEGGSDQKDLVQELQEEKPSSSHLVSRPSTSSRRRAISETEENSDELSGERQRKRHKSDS

B1: NH2-RWDRYYF (peptide)
peptide: H-RWDRYYF
notes: Hit of a seven residue peptide library; also called ubiquitin lead peptide; lead peptide
Binder B1 has a Kd [1] of 33 µM.

H-WGLRALESRWDRYYF (Hit of the library NH2-X7-S-RWDRYYF) [NH2-WGLRALESRWDRYYF] was tested, and the Kd [1] was 12 µM and the “fold better in solution than the lead peptide” value [2] was ~3 fold.

B2: KIXbp1 (peptide)
peptide: SVPGSVSWFEFWSAVDAVET
modifications: not fully specified (N-terminus); also: N-terminal carboxyfluorescein only in solution titrations, attached to TentaGel resin in bead assays
notes: Phage display 20-mer
B2 was tested, and the Kd [3] was 8 µM, the Kd [4] was 8 µM and the “half-life of the complex in solution” value [5] was < 10 s. The “half-life of the complex in solution” value [6] was < 10 s and the “half-life of the immobilized complex” value [7] was > 2 h.

B3: Mdm2bp (peptide)
peptide: PLSQETFSDLWKLLPENNV
modifications: not fully specified (N-terminus, C-terminus); also: N-terminal carboxyfluorescein only in solution titrations, attached to TentaGel resin in bead assays
notes: also called p53 derived peptide; p53-derived peptide
B3: no binding [8].

B4: Gal80bpscram (peptide)
peptide: DLQRDTNKGFHEMFDWDYQN
modifications: attached to TentaGel resin in the bead assays
notes: Scrambled control of Gal80bp; also called Ga180bpscram; scrambled version of Gal80 bp
B4: no binding (tested: 300 nM) [9].

FSASFTEVVDAGWVSPWSVE (attached to TentaGel resin in the bead assays, Scrambled control of KIXbp1) [KIXbp1scram]: no binding (tested: 300 nM) [10].

NVKWLDPNQELPSFLTSLE (attached to TentaGel resin in the bead assays, Scrambled control of Mdm2bp) [Mdm2bpscram]: no binding (tested: 300 nM) [11].
